Test results as given in the Immune Epitope Database (IEDB).
Values belong to the sequence of their own block, whether it stands above or below them.

Columns and labels:
[1] = target: HLA-B*08:01; experiment: IEDB peptide-MHC binding, purified MHC/competitive/radioactivity; filed as Kd, often an IC50 or EC50 that approximates it; ≥ and ≤ were set here for values at or beyond the usual limits of such assays; settings: source organism: Dengue virus 1 Brazil/97-11/1997
[2] = target: HLA-A*02:01; experiment: as above
[3] = target: HLA-A*02:17; experiment: as above
[4] = target: HLA-A*02:03; experiment: as above
[5] = target: HLA-A*02:06; experiment: as above
[6] = target: HLA-B*15:17; experiment: IEDB peptide-MHC binding, purified MHC/direct/fluorescence; filed as Kd, often an IC50 or EC50 that approximates it; ≥ and ≤ were set here for values at or beyond the usual limits of such assays; settings: source organism: Mycobacterium tuberculosis
[7] = target: HLA-B*46:01; experiment: as above; settings: source organism: Mycobacterium tuberculosis
[8] = target: HLA-B*40:01; experiment: as above
[9] = target: HLA-A*69:01; experiment: as above
[10] = target: HLA-B*15:09; experiment: as above; settings: source organism: Mycobacterium tuberculosis CDC1551
[11] = target: HLA-A*31:01; experiment: as above
[12] = target: HLA-B*48:01; experiment: as above; settings: source organism: Mycobacterium tuberculosis
[13] = target: HLA-B*18:01; experiment: as above; settings: source organism: Mycobacterium tuberculosis
[14] = target: HLA-B*08:02; experiment: as above; settings: source organism: Mycobacterium tuberculosis CDC1551
[15] = target: HLA-B*07:02; experiment: as above
[16] = target: HLA-A*11:01; experiment: as above
[17] = target: HLA-B*51:01; experiment: as above; settings: source organism: Mycobacterium tuberculosis
[18] = target: HLA-A*03:01; experiment: as above
[19] = target: HLA-A*01:01; experiment: as above
[20] = target: HLA-B*27:05; experiment: as above
[21] = target: HLA-B*57:01; experiment: as above; settings: source organism: Mycobacterium tuberculosis
[22] = target: HLA-B*15:01; experiment: as above
[23] = target: HLA-B*58:01; experiment: as above
[24] = target: HLA-B*08:01; experiment: IEDB peptide-MHC binding, purified MHC/competitive/fluorescence; filed as Kd, often an IC50 or EC50 that approximates it; ≥ and ≤ were set here for values at or beyond the usual limits of such assays; settings: source organism: Mycobacterium tuberculosis CDC1551
[25] = target: HLA-A*30:01; experiment: as above
[26] = target: HLA-A*02:01; experiment: as above; settings: source organism: Mycobacterium tuberculosis CDC1551
[27] = target: HLA-A*02:06; experiment: as above
[28] = target: HLA-B*15:17; experiment: as above; settings: source organism: Human immunodeficiency virus 1
[29] = target: HLA-B*18:01; experiment: as above; settings: source organism: Human immunodeficiency virus 1
[30] = target: HLA-A*11:01; experiment: as above; settings: source organism: Human immunodeficiency virus 1
[31] = target: HLA-A*02:03; experiment: as above; settings: source organism: Human immunodeficiency virus 1
[32] = target: HLA-A*01:01; experiment: as above; settings: source organism: Human immunodeficiency virus 1
[33] = target: HLA-B*57:01; experiment: as above; settings: source organism: Human immunodeficiency virus 1
[34] = target: HLA-B*15:01; experiment: as above; settings: source organism: Human immunodeficiency virus 1
[35] = target: HLA-B*08:01; experiment: IEDB peptide-MHC binding, purified MHC/direct/fluorescence; filed as Kd, often an IC50 or EC50 that approximates it; ≥ and ≤ were set here for values at or beyond the usual limits of such assays; settings: source organism: Pseudomonas putida
[36] = target: HLA-A*02:01; experiment: as above; settings: source organism: Pseudomonas putida
[37] = target: HLA-A*24:03; experiment: as above; settings: source organism: Pseudomonas putida
[38] = target: HLA-A*26:01; experiment: as above; settings: source organism: Pseudomonas putida
[39] = target: HLA-A*02:11; experiment: IEDB peptide-MHC binding, purified MHC/competitive/fluorescence; filed as Kd, often an IC50 or EC50 that approximates it; ≥ and ≤ were set here for values at or beyond the usual limits of such assays; settings: source organism: Pseudomonas putida F1
[40] = source organism: Dengue virus 1 Singapore/S275/1990
[41] = source organism: Dengue virus 2 Jamaica/1409/1983
[42] = source organism: Dengue virus 4 Philippines/H241/1956
[43] = source organism: Mycobacterium tuberculosis
[44] = source organism: Mycobacterium tuberculosis CDC1551
[45] = source organism: Human immunodeficiency virus 1
[46] = source organism: Pseudomonas putida

Sequence: ILLMLVTPSM
Kd [1]: 160 nM | Kd [2, 40]: 102 nM | Kd [3, 40]: 1110 nM

Sequence: RLLTKPWDV
Kd [2, 41]: 27.6 nM | Kd [3, 41]: 1430 nM

Sequence: KLAEAIFKL
Kd [4, 41]: 8.68 nM | Kd [5, 41]: 14.8 nM | Kd [3, 41]: 19.1 nM

Sequence: DLMEFIDGI
Kd [2, 42]: 74.2 nM | Kd [3, 42]: 1970 nM

Sequence: GLYPLAIPV
Kd [2, 42]: 1.06 nM | Kd [4, 42]: 0.42 nM | Kd [5, 42]: 125 nM | Kd [3, 42]: 53.8 nM

Sequence: RLITANPIV
Kd [2, 40]: 61.3 nM | Kd [3, 40]: 121 nM

Sequence: ALRSRWRAL
Kd [6]: ≥ 20000 nM | Kd [7]: ≥ 20000 nM | Kd [8, 43]: ≥ 20000 nM | Kd [9, 43]: ≥ 20000 nM | Kd [10]: ≥ 20000 nM | Kd [11, 43]: ≥ 20000 nM | Kd [12]: ≥ 20000 nM | Kd [13]: ≥ 20000 nM | Kd [14]: ≥ 20000 nM | Kd [15, 43]: 59.5 nM | Kd [16, 43]: ≥ 20000 nM | Kd [17]: ≥ 20000 nM | Kd [18, 43]: ≥ 20000 nM | Kd [19, 43]: ≥ 20000 nM | Kd [20, 43]: ≥ 20000 nM | Kd [21]: ≥ 20000 nM | Kd [22, 43]: 504 nM | Kd [23, 43]: ≥ 20000 nM | Kd [24]: 14 nM | Kd [25, 44]: 132 nM | Kd [26]: ≥ 20000 nM | Kd [27, 44]: 556 nM

Sequence: KSLYNTVAVLY
Kd [28]: 484 nM | Kd [25, 45]: 4780 nM | Kd [29]: 275 nM | Kd [30]: ≥ 20000 nM | Kd [31]: ≥ 20000 nM | Kd [27, 45]: 300 nM | Kd [32]: 4460 nM | Kd [33]: 4820 nM | Kd [34]: ≥ 20000 nM

Kd [35]: 7120 nM | Kd [36]: 409 nM | Kd [8, 46]: ≥ 20000 nM | Kd [9, 46]: 712 nM | Kd [11, 46]: 991 nM | Kd [37]: ≥ 20000 nM | Kd [15, 46]: 330 nM | Kd [16, 46]: ≥ 20000 nM | Kd [18, 46]: ≥ 20000 nM | Kd [19, 46]: ≥ 20000 nM | Kd [20, 46]: ≥ 20000 nM | Kd [38]: ≥ 20000 nM | Kd [22, 46]: 3700 nM | Kd [23, 46]: ≥ 20000 nM | Kd [39]: ≤ 1 nM
Sequence: VMTEGRHAV
